Source: patent US9839671B2, “Peptide and uses therefor” (University of Birmingham, priority 2012, dated 2017)
Entries after “also recorded” stand apart in the source; their conditions may differ.

Columns and labels:
[1] = test system: transmigration of B cell depleted PBL / T cells / NK cells across TNF-α/IFN-γ stimulated endothelial cells; test: B cell dependence of adiponectin inhibition (B cell depletion, B cell supernatants, Brefeldin A, NK cells); assay type: cell-based, human; conditions: for effect of B cell supernatants prepared in the presence of Brefeldin A: inhibitor of B cell secretion; for adiponectin inhibition of migration after removal of B cells from PBL: adiponectin 15 μg/ml, B cell depleted PBL
Method: B cells were isolated and incubated in presence or absence of adiponectin at 15 μg/ml. […] For some experiments, B cells were treated with Brefeldin A, an inhibitor of B cell secretion. […] This is shown in FIG. 8, where the data is shown as mean±SEM and is representative of three independent experiments analysed using one-way ANOVA and Bonferroni's multiple comparison post test. ***p<0.001, ns=non-significant.
Refer to FIG. 14. Endothelial cells were cultured in low serum medium and stimulated with TNF-α/IFN-γ for 24 hours in the absence of adiponectin. PBL transmigration was measured after removal of B cells using bead positive selection and after reconstitution with B cells that were isolated using bead negative selection in presence or absence of adiponectin (15 μg/ml). Supernatants from adiponectin-treated B cells or B cell treated with Brefeldin A to block protein secretion were added to PBL.

[2] = test system: PBL or B cell depleted PBL transmigration across IFN-γ/TNF-α treated HUVEC; test: S1P signalling in PBL transmigration across HUVEC; assay type: cell-based, human
Method: Refer to FIG. 19. […]. Levels of SPHK1 and SPHK2 mRNA expression determined by real-time PCR of RNA from B cells and HUVEC (part D, n=2). PBL transmigration was measured across IFN-γ/TNF-α treated HUVEC pre-treated with SPHK1 specific inhibitor (5 μM) in presence of […] (10 ng/ml) (part E).

[3] = test system: lymphocyte integrin LFA-1 (CD11a/CD18; αLβ2); test: LFA-1 affinity sites on memory T cells immobilised on ICAM, activated with IP-10; assay type: cell-based; conditions: IP-10 10 ng/ml, S1P 10 μM, 30 minutes
Method: Refer to FIG. 20. 96 well plates were coated with 50 μg/ml of recombinant ICAM overnight at 4° C. The plate was blocked using PBS 4% BSA for an hour at room temperature and PBL treated with IP-10 (10 ng/ml) and/or S1P (10 μM) were added for 30 minutes. Excess of unbound PBL was washed and PBL were labelled for the intermediate affinity site of the lymphocyte integrin LFA-1 (CD11a/CD18; αLβ2) using the KIM127 antibody (10 ug/ml) and for the high affinity site using antibody 24 (10 ug/ml) at 4° C. The expression of both affinity site was measured on memory T cells using mean fluorescence intensity (MFI). […] Data is a pool of two independent experiments.

[4] = test system: transmigration of peripheral blood lymphocytes (PBL) across TNF-α/IFN-γ stimulated endothelial cells; test: PBL transendothelial migration, static adhesion (transwell) assay; assay type: cell-based, human; conditions: for PBL transmigration: static assay, adiponectin 0.0001-15 μg/ml, peptide 0.001-10 ng/ml, control peptides 10 ng/ml
[5] = test system: PBL migration across TNF-α/IFN-γ stimulated endothelial cells under flow; test: PBL migration, flow based adhesion assay; assay type: cell-based, human; conditions: adiponectin 15 μg/ml
Method: We have been interested in the ability of the adipocyte derived cytokine, adiponectin, to regulate the recruitment of human T cells to inflamed endothelium. […] In our in vitro studies we used static transwell assays, as well as flow based adhesion assays, to track the migration of T cells (which were in crude isolates of peripheral blood lymphocytes [PBL]) across TNF-α and IFN-γ stimulated endothelial cells.
Endothelial cells were cultured in low serum medium and stimulated with TNF-α/IFN-γ for 24 hours in the absence of adiponectin. PBL were isolated and treated with adiponectin at 0.0001 to 15 μg/ml for one hour.
Refer to FIG. 13. Endothelial cells were cultured in low serum medium and stimulated with TNF-α/IFN-γ for 24 hours in the absence of adiponectin. PBL were isolated and treated with adiponectin at 0.0001 to 15 μg/ml for one hour. […] In part (D), compound C, an AMP-kinase inhibitor, was added to PBL at 10 μg/ml for 30 minutes prior to addition of adiponectin at 15 μg/ml for 1 hour. AMPK is a signalling adapter that is required for adiponectin-receptor signalling. […] Data is a pool of at least three independent experiments and were analysed using t-test, one-way ANOVA and Dunnett's multiple comparisons post-test. **[…], ***[…].

[6] = test system: PBL from T1D patients across TNF-α/IFN-γ stimulated endothelial cells; test: Transmigration of PBL from type 1 diabetes patients; conditions: adiponectin 15 μg/ml one hour or exogenous PEPITEM
Method: Endothelial cells were cultured in low serum medium and stimulated with TNF-α/IFN-γ for 24 hours in absence of adiponectin. […] Data was analysed using t-test and one-way ANOVA and Bonferonni's multiple comparisons post-test. ***p≦1.0001.
Endothelial cells were cultured in low serum medium and stimulated with TNF-α/IFN-γ for 24 hours in the absence of adiponectin. […] Data was analysed using t-test **p<0.01.

C[C@H]1CCC/C=C/[C@@H]2C[C@H](O)C[C@H]2[C@H](O)/C=C/C(=O)O1 [Brefeldin A, reference compound]
effect of B cell supernatants prepared in the presence of Brefeldin A [1]: not able to regulate the migration of T cells
effect of B cell supernatants prepared in the presence of Brefeldin A ([1]; listed as Brefeldin-A): this effect was lost
effect of B cell supernatants prepared in the presence of Brefeldin A ([1]; listed as Brefeldine A): lost

CCCCCCCCCCCCC/C=C/[C@@H](O)[C@@H](N)COP(=O)(O)O [S1P, sphingosine-1-phosphate]
transmigration of B cell depleted PBL pre-treated with S1P ([2]; exogenous S1P 0-100 μM (FIG. 19C)): restores the inhibition of transmigration; also recorded: dose dependently inhibits T cell migration
expression of intermediate (KIM127) and high affinity (antibody 24) sites of LFA-1 on memory T cells (MFI) [3]: down-regulated

CCCCCCc1cccc(NC(=O)[C@H](N)CCP(=O)(O)O)c1 [W146]
effect on PEPITEM inhibition of lymphocyte transmigration ([2]; W146 10 μM with PEPITEM (FIG. 19B)): releases lymphocytes from the inhibitory effects of PEPITEM
effect on adiponectin inhibition of lymphocyte transmigration ([2]; W146 10 μM, adiponectin 15 μg/ml (FIG. 19A)): releases lymphocytes from the inhibitory effects of Adiponectin

c1cc(-c2cnn3cc(-c4ccc(OCCN5CCCCC5)cc4)cnc23)ccn1 [compound C, reference compound]
effect on adiponectin-induced decrease of PBL transmigration ([4]; compound C 10 μg/ml on PBL 30 minutes before adiponectin 15 μg/ml 1 hour): restored to normal, control levels; also recorded: restored to normal control levels; also recorded: ablated
PBL migration in the absence of adiponectin ([4]; compound C alone): did not have any effects

B1: adiponectin (protein)
chain: ETTTQGPGVLLPLPKGACTGWMAGIPGHPGHNGAPGRDGRDGTPGEKGEKGDPGLIGPKGDIGETGVPGAEGPRGFPGIQGRKGEPGEGAYVYRSAFSVGLETYVTIPNMPIRFTKIFYNQQNHYDGSTGKFHCNIPGLYYFAYHITVYMKDVKVSLFKKDKAMLFTYDQYQENNVDQASGSVLLHLEVGDQVWLQVYGEGERNGLYADNDNDSTFTGFLLYHDTN
notes: adipocyte-derived cytokine, used as positive control
EC50, inhibition of PBL transmigration ([4]; adiponectin, static adhesion assay, PBL treated one hour, linear regression (FIG. 1B)): 0.94 µg/mL
EC50 ([4]; adiponectin, static adhesion assay, linear regression (FIG. 13A), read-out: EC50, inhibition of PBL transmigration): ~40 nM
inhibition of PBL transmigration on DMEC ([4]; dermal microvascular endothelium (FIG. 13C)): effective
inhibition of PBL transmigration on HUVEC ([4]; endothelial cells from umbilical cord (FIG. 13C)): effective
inhibition of PBL transmigration on HSEC ([4]; liver sinusoidal endothelial cells (FIG. 13C)): effective
inhibition of PBL transmigration on HSAVEC ([4]; saphenous vein endothelial cells (FIG. 13C)): not
PBL transmigration [4]: significantly and dose dependently reduced; also recorded: dose dependently blocked
PBL transmigration ([4]; listed as Adiponectin): induced a decrease of transmigration
PBL transmigration ([4]; listed as Aq): significantly reduced lymphocyte migration
PBL migration in flow based adhesion assay [5]: equally effective
adiponectin inhibition of migration after removal of B cells from PBL [1]: lost
adiponectin inhibition of migration after removal of B cells from PBL ([1]; listed as Adiponectin): completely inhibited this response
adiponectin inhibition of migration after removal of B cells from PBL ([1]; listed as Aq): completely inhibited this response
migration of natural killer cells ([1]; with adiponectin (FIG. 7B)): not affected
inhibition of transmigration of PBL from T1D patients [6]: refractory; also recorded: significantly compromised
inhibition of transmigration of PBL from T1D patients ([6]; listed as Adiponectin): lost
